Values belong to the molecule of their own block, whether it stands above or below them.
How the values were obtained:
[1] = target: T1, CmLDH1 (Cyanidioschyzon merolae, UniProt M1V6D8); assay: NADH oxidation at […] nm, relative activity; assay type: biochemical; details: activation; 5 mM FBP, 0.20 mM pyruvate, 0.05 mM NADH, pH 7.0, 57 °C
T1 construct: gene CYME_CMA145C; full length, 354 residues; E. coli BL21(DE3)
T1 sequence (M1V6D8 1-354): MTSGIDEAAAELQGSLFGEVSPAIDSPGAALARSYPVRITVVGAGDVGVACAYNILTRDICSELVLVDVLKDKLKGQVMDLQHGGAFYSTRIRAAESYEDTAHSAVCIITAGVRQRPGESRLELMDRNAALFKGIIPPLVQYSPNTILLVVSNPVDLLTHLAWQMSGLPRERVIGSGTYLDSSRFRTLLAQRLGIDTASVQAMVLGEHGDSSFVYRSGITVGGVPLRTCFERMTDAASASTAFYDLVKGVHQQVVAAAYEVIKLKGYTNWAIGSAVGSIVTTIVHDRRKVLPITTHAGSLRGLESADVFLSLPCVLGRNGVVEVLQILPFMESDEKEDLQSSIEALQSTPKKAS

[2] = target: T1, CmLDH1; assay: NADH oxidation at […] nm, relative activity; assay type: biochemical; details: inhibition, 0.20 mM pyruvate, 0.05 mM NADH, pH 7.0, 57 °C
[3] = substrate: CC(=O)C(=O)O; assay: purified protein; assay type: biochemical, Cyanidioschyzon merolae; details: 0.15 mM NADH, pH 4.5 (optimum), 57 °C, no effector
[4] = substrate: NC(=O)C1=CN([C@@H]2O[C@H](COP(=O)(O)OP(=O)(O)OC[C@H]3O[C@@H](n4cnc5c(N)ncnc54)[C@H](O)[C@@H]3O)[C@@H](O)[C@H]2O)C=CC1; assay: purified protein; assay type: biochemical, Cyanidioschyzon merolae; details: 2 mM sodium pyruvate, pH 4.5 (optimum), 57 °C, no effector

- relative activity at 5 mM [1]: 1.2 fold
Molecule: O=P(O)(O)OC[C@H]1OC(O)(COP(=O)(O)O)[C@@H](O)[C@@H]1O (stereo partly drawn) [FBP]

Molecule: Nc1ncnc2c1ncn2[C@@H]1O[C@H](COP(=O)(O)OP(=O)(O)O)[C@@H](O)[C@H]1O [ADP]
- relative activity [2]: ATP and ADP (particularly ATP) decreased CmLDH1 activity

Molecule: Nc1ncnc2c1ncn2[C@@H]1O[C@H](COP(=O)(O)OP(=O)(O)OP(=O)(O)O)[C@@H](O)[C@H]1O [ATP]
- relative activity ([2]; mixed inhibitor for NADH): ATP and ADP (particularly ATP) decreased CmLDH1 activity

B1: CmLDH1 (Cyanidioschyzon merolae strain 10D) (protein)
chain: MTSGIDEAAAELQGSLFGEVSPAIDSPGAALARSYPVRITVVGAGDVGVACAYNILTRDICSELVLVDVLKDKLKGQVMDLQHGGAFYSTRIRAAESYEDTAHSAVCIITAGVRQRPGESRLELMDRNAALFKGIIPPLVQYSPNTILLVVSNPVDLLTHLAWQMSGLPRERVIGSGTYLDSSRFRTLLAQRLGIDTASVQAMVLGEHGDSSFVYRSGITVGGVPLRTCFERMTDAASASTAFYDLVKGVHQQVVAAAYEVIKLKGYTNWAIGSAVGSIVTTIVHDRRKVLPITTHAGSLRGLESADVFLSLPCVLGRNGVVEVLQILPFMESDEKEDLQSSIEALQSTPKKAS
notes: full length, 354 residues; E. coli BL21(DE3)
- K0.5 [3]: 0.13 ± 0.005 mM
- kcat [3]: 314 ± 3 s⁻¹
- kcat/Km [3]: 2.46e+06 ± 75000 M⁻¹ s⁻¹
- K0.5 [4]: 0.011 ± 0.0006 mM
- kcat [4]: 324 ± 6 s⁻¹
- kcat/Km [4]: 2.95e+07 ± 1.05e+06 M⁻¹ s⁻¹
